Laboratory results published in PMC7582164, “The soluble neurexin-1β ectodomain causes calcium influx and augments dendritic outgrowth and synaptic transmission” (Scientific Reports, 2020).
No end group written: not given here.

Assays:
[1] = target: Recombinant neuroligin-1 (NL-1) (UniProt Q62765); test: SPR; Biacore 2000; NL-1 immobilised on a CM4 chip by amine coupling (~2800 RU); analyte NX-1β Fc chimera 0.05-0.8 µM or Neurexide 1.25-20 µM; 25 °C; HBS-P (10 mM HEPES pH 7.4, 150 mM NaCl, 0.005% P20) with 3 mM CaCl2; 30 µl/min; 1:1 Langmuir fit
[2] = target: T1, Recombinant neuroligin-1 (NL-1) (UniProt Q62765 46-697); test: as above; conditions: both partners purified
T1 construct: neuroligin-1, recombinant; source: bought: R&D Systems (cat# 4340-NL)
T1 sequence (Q62765 46-697): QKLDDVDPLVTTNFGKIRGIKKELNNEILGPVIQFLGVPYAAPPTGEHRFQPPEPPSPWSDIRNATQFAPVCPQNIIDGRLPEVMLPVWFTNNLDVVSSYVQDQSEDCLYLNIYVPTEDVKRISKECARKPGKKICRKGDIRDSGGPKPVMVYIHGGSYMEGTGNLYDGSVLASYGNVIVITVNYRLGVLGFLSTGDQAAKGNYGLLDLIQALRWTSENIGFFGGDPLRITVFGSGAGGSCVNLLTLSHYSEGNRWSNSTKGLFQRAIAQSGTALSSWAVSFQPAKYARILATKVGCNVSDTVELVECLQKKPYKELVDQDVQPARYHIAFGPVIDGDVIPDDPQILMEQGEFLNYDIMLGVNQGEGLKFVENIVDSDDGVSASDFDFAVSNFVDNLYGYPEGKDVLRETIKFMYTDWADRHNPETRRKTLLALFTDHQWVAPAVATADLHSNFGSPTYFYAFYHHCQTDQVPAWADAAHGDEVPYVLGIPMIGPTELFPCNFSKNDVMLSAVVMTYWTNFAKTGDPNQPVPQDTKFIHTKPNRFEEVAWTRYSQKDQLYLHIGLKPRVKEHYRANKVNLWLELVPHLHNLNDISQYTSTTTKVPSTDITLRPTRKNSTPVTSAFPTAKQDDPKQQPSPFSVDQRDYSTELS

Chain of Recombinant neuroligin-1 (NL-1) (UniProt Q62765) (Q62765 46-697): as above

Human neurexin-1β Fc-chimera (NX-1β ectodomain lacking splice site 4) (from UniProt P58400 51-396) (Fc fusion)
Kd [1]: 32 nM

B1: Neurexide (synthetic 10-mer peptide modeled after the NX-1β binding site for NL-1), tetramer on a lysine backbone (peptide)
peptide: ARPSTRADRA
modifications: also: tetramer coupled to a lysine backbone
notes: The peptide was made as a C-terminally amidated monomer, a dimer and a tetramer; also called Neurexin peptide; source: synthetic peptide
Kd [2]: 480 nM
